Measurements from patent US20240269180A1.

Experiments:
[1] = target: PD-1 on tumor infiltrating lymphocytes (human) (UniProt Q15116); assay: flow cytometry of tumor digest H3046 stained with anti-PD-1 clone EH12.2H7; percent of CD3+ cells stained PD-1+
[2] = target: PD-1 on tumor infiltrating lymphocytes (human) (UniProt Q15116); assay: flow cytometry of tumor digest M1156 stained with anti-PD-1 clone EH12.2H7; percent of CD3+ cells stained PD-1+
[3] = target: PD-1 on tumor infiltrating lymphocytes (human) (UniProt Q15116); assay: flow cytometry of tumor digest OV8074 stained with anti-PD-1 clone EH12.2H7; percent of CD3+ cells stained PD-1+

Chain of UniProt Q15116 (Q15116 25-288): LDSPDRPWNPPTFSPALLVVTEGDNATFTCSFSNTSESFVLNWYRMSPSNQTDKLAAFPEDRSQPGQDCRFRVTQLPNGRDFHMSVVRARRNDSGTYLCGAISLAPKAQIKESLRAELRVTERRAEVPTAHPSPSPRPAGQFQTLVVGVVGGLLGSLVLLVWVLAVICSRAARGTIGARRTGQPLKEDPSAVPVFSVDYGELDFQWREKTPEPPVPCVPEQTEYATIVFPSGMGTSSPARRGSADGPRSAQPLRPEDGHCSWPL

Pre-sort % PD-1+ (of CD3+) [1]: 13%
Pre-sort % PD-1+ (of CD3+) [2]: 93%
Pre-sort % PD-1+ (of CD3+) [3]: 70%
B1: anti-PD-1 antibody clone EH12.2H7 (antibody, from another filing, V domains shown)
VH: QVQLQQSGAELAKPGASVQMSCKASGYSFTSSWIHWVKQRPGQGLEWIGYIYPSTGFTEYNQKFKDKATLTADKSSSTAYMQLSSLTSEDSAVYYCARWRDSSGYHAMDYWGQGTSVTVSS
VL: DIVLTQSPASLTVSLGQRATISCRASQSVSTSGYSYMHWYQQKPGQPPKLLIKFGSNLESGIPARFSGSGSGTDFTLNIHPVEEEDTATYYCQHSWEIPYTFGGGTKLEIK
